From a protein production outcome set (Wang et al. 2014)

Test: label from the status in PepcDB records

| Sequence | protein production |
| --- | --- |
| MSTDFAAARLNMVESQIRTADVTDLPLQDALRVVARESVVPASKAYLAYADADIEYAPGRWLLRPREVGKLLQALKPREGETVLAIAAPYAAAVLEKMGLSVTRHDGEDLKTVPAGAYDVIVCEGAVAVAPKSWQDALAHGGRLGVVERTGPVGRAAIYLRAEDGVGRRAAFDASPPLLAGFEAETGFSF | failed |
| MISPDAKIKIQNFGRFLSNMVMPNIGAFIAWGFITALFIPTGWLPNETLASMVGPMITYLLPLLIGYTGGKLVGGDRGAVVGAITTMGVIVGTDIPMFMGAMMVGPMGGWAIKKFDNYIDGKVKSGFEMLVNNFSAGIIGMLCAILAFFLIGPFVKVLSGALAAGVNFLVSAHLLPLTSIFVEPAKILFLNNAINHGIFSPLGIQQASETGQSIFFLIEANPGPGLGILLAYMVFGKGTARQTAGGASIIHFFGGIHEIYFPYILMNPRLILAAIAGGMTGVFVLTMFNAGIVSPASPGSIFAILLMTQKGSIVGVLASIAAATGVSFAVASLLMKTQTSTEEDGDEAALEKATSQMKDMKSSSKNGAVVNNESKGDVDLATVQSIIVACDAGMGSSAMGASMLRKKVQDAGLNVHVTNLAINSLPESADIVITHKDLTGRARKHAPNAHHISLTNFLDSEMYNQLVTKLLAAQKQSAANDDQMVKVSVLAANDDSFEPQQPSVFQIQRENIHLGLKAANKEEAIRFAGNKLVELGYAEPEYVDAMFEREALVPTYLGESIAVPHGTVEAKDRVKKTGIVICQYPSGIQFTEDDDDVAKLVIGIAAKNDEHIQVITTITNALDEPEAIEKLTSTNDVEEILNILGGQQAA | failed |
| MQTKEKLASLSYLAVKSLLYELNLTPKPGLVDCHNNGAHNDMDFYTFLDSILSLSPFFKKYIEVGWLYHNESPQYLFNQLRKLGIEAEAAMFSATERVNTHKGINFSFALLLGATGSYLAKHIELIQEKRRFMPQDSLTICHLAGEMSMHLIQNDLSHVETKRNLTYGEKLFLQYGLKGLRGEASQGYPSLTQKALPFFRNELLKKQDIQISQLKLLLYLMTFIEDSNIIHRGGIKSWKKVQQEAQTLLEKDLPPYQLKEQLNSYNQILTDRHLSPGGAADLLSLTLYFSFLEQLI | failed |
| PGMLYEFCLKPDGTMTFPYVSSGCLELIECSPQELQDDASLTFASTYPEDIIGLQEAIANSAKTLQNFEHEWRIITSSGQLKWVKGASRPERKPGGEITWYGYLLDVSEQQAALRERKQADQQLQQQAQLLQSIWEGVD | failed |
| MNKALKALGVLTTFVMLIVLIGGALVTKTGSGQGCGRQWPLCHGRFFPELNPASIIEWSHRFASGISIILVLSLAFWSWRKITPIFRETTFLAIMSIIFLFLQALLGALAVVFGSNALIMALHFGISLISFASVLILTLLIFEADKSVRTLVKPLQIGKKMQFHMIGILIYSYIVVYTGAYVRHTESSLACPNVPLCSPLNNGLPTQFHEWVQMGHRAAALLLFVWIIVAAVHAITSYKDQKQIFWGWISCLIFITLQALSGIMIVYSELALGFALAHSFFIACLFGVLCYFLLLIARFRYESRQS | failed |
| MRSLMATRAKPNKKQNASARGKKPAWLGGIGLRQVRMFCGLVLFTYLLSHFLNHALGNISPEALHAGVLWHLEIWQFLPVAILFYGSVTVHAGLGLWALYQRRQFRWKTLEPLQLVLGLSVPLMIYSHVIVMRLGNVLYDQDRLYPQVLYNYFVASPSYRAWLMVAVMLIAWTHGCIGLYVWLRIKPAFRRAMPWLLAAAVLIPTLALLGFYQGGRTVAREAASPQWQANNLAPANLGTPEQQQTLEAIGNGFLIFYLGLIALALIARAVRAIIERRGGMVRLTYDGERSIRVPKGLTVLEATQRHNIPHASACGGRARCSTCRIRVLGDPATLPPPSPREAFVLASIGTGDDPSIRLACQLKPTQDLTFLPVFPPRNVAAARKAARAARIGEERYLVSMFVDMRGSTKLAESRLPFDTVFIVNRFLGAVSRSVIACGGQPNQFVGDGMLALFGLAETPREACRNAVRAAAAIGAAIDELNNFLGHDLPEPIRFGIGIHSGEVVVGEIGYRDHMVFTALGDSVNVASRLQDMTKSLGCETLLSDELRATAGLSEQALPTLELEIRGRTEPMLVCVVERAGDLVAVLNEDLVLA | failed |
| MMTALATVLEVQEDIVVVGCQQKTSCNHCSSKDSCGTGIVSKALPGKVHHWAFHTEKKLSVGQLVEIGLPEKNLLQSAAIVYLTPLLFLLFGALLSEWFLSPMIGLGELTTIVVSVLFALGGYQLAKRLSHHIEQKTEQQVSLLRVLGEPVSDTNLGNAAR | failed |
| MFSNVNKTTSAEAGKSAFWAMSIFLLLLSIMLLVLGLYYQIVLHHTPAPLLLGIAAGFGLGTPLEIWNFSDPDTLMRVMAFQDRFLIVCFGFSIGLGAILLYLFAAIPGVSPHYGIKDFFVFGVVVGGLLFGVGVGLAGYFPGTIWIALGQGRRDAIYAVFGGLLGALTWSLIFGAARGFFWNTFNYGPITWYSIFGIKSHLEIFGTSLIFGAILLGMFLFLPRYPKQPVKESCGFHLAGKNNKVLTFDDMIDDENKKYPDQNQYLIRLTNESSIRNARSIIVLGIAFTVIAVAVILLRQIFGESTTYSWIGAQLFYAVNPQYAASNPYWNLFGGMHIVNGKPIDLPFSEIGWEPFSDLGTFLGGLISSIFISKRFMKFKKRVPLVWEHRFGPSDKKRFVGSFFGAFLVLFGARMANGCASGHVLSGNIQMAISSFVFLMAVLIGSWLTLYFVMGLKLNSRGYRN | failed |
| MGNCCVSSGTTDRENENVSDKNTTIVEEETVVKEVLSETTLFTPSSSFRTSTFKDPVKTKIREDEEKKPGFLKMASDPVLIRPGSVDPEEGSEVSEICSLSLSESVSSTVVMNGYDEEHVMMKQRKSQRSPAKTRTQVTGNNYPTRRTDQSPRKRNNGTCNGARYGSGVRDPGERSGRRSRSPATNRSVMDSNQSSRVGGAKTRKNNQSPGRVRLDPAKNGLDQQQHQNYGYTTEELLENPLVSLECFIFL | failed |
| MGHAALDAVLPDGGWPRRALTELLLPAHGIGEIALLLPTLARMTGAGSRVVLVAPPYVPYAPAWQAGGVALQQLEIVQAEPRDALWAFEQCLRSGACAAVLGWPQTGDARALRRLQVAADSGNCCAFALRDRRHAVNASPLEHHHHHH | failed |
| MTVAPTTHVPPARPAAYRELVRQRNSFTVAMTLTFLVLYFLLPLLAGYNKPLMATKVFGNVTFGYVLAFLEFLMGWVMAAIYVRKARTFDRLALEAQVPGGGA | failed |
| MQESVVRVDYDSLETCKNFKPSVGTELIVLEKDIAHARFKGNESMVYEENFVHAGFVLIACNYAALCALNKRHSVVVSNNINFYAPLELNQEALIKAQVIQDGVKKAEIKIEAFVLDIQVLEGMIEIVVFDKKPFKFNFKEELEHHHHHH | failed |
| PQKKVIVLVHGLASSPEAWIALTNDIMGDNILREHYQVWQVFYSTNMPILESRFQIYALLKQAFDSLNPNDPADHNAVLIGHSMGGIISRLLVSQADISQKAFSLVSPYQQAQLKKQPMVYQRLKIQPIPNFDRAIFMSAPHHGTDFADLWFTRAARKIIKLPGAFLGAITDTVTNENIDAKDLLLRIDQGLIQNGPSDLSYKSKFIELTKNINPPSGFVFHSIIGNNTKSDDPEKITDGIVPYKSAHLEGSASEKIIQGGHSIQETPQAVLELRRILRLHLKEHQ | failed |
| MRAFFNSSMREKLSQLKARQQKQEMPANLSIIHALRATQEGFEDDGVMRNYDLLESQFKENLTKEDRELLESPKPNLEKLQELKIRLLEKNGIFKPPKQKSQISLVFGMNALVPLGTIKTL | failed |
| MSIESLWSSRFQQHIQNIITYFARMINGLLYSFIFISCVGAYYYAQFLKASPSKGISLIIITIVLTFIITRCPIRTFIQKPDAVYLLALEEKLTSYFKKSLLYNYIMQLFPLLFTFLILVPLAMQSLQLTVPFLCTIFIVLMITKAWNMYIHWMWRDSHEKNIWLIIRITCNALIIYMLFYSANVLILGGLLLLLAFLLLYTKKQPTKRIPWDYIIEQEEKMNVRFYQFASIFTDVPQLNKQVNKRKWLTNWIEPLLHKKRATFFYLHTLAFLRGNDYFGIYIRLRLIGAFALYFIPNIYVKGAIAYIVLYMISMQLRSLWKYFSGNIIVALYPIHTEERMKQFLHLIFILLSIQLIVFSSVILIATGQFLHILIIMIVGLLWIKFIIVPKTKQRISAF | failed |
| MNAIPRVALVWLLVAQVLVILPHLAYMPLWIAAMWLGCAAWRVQVFRMRAGYPRAWVKLALALLAGAGVWLSRGSLVGLDAGAVLLIAAFILKLVEMKTRRDALVLVFLGFFAVVVGYLFDDGFLAALYSLLPVTALLAALIGLQQSAFASRPWPTLRLAGGLLLQALPLMLLLFLFFPRLGPLWSLPMPGNKGVTGLSESMAPGDIAELGRSAELAFRVRFEGALPPREQLYWRALTMERFDGRRWAQAPQWSGEDALHWQKRGPELRYDVIMQPSSQPWLFALDVAQTDQTDTRLMSDFHLQRRQPVEQRLFYRVSSWPQALRESSIDPRTRWRNLQLPMHGNPRARALADELRQAHAQPQALVAALLQRFNHEPFAYTLKPPATGADGVDDFLFDTRSGFCAHYAGAMAFVLRAAGIPARVVAGYQGGELNPAGNYLLVHQFDAHAWVEYWQPEQGWLSVDPTYQVAPERIEQGLEQALAGDSEYLADAPLSPLRYRGLPWLNDMRLAWDSLNYGWQRWVLAYQGEQQGAFLQRWFGGLDPTRLGLLLGAAAILSVGLLALFLLKPWQGRGDLRSRQLRRFERLLEMHGLRRSPGEGLRSYGERAARVLPAQAPAIAAFVGAFEAQRYGHGGADDPGLRLRALRRALPWRLVRTPTRDGRGEEQA | failed |
| MTQRSLADIQFQTTLEGVTPAQLGGFFEGWPNPPTPETLWRILDRAAVFVLARTPDGQVIGFVNALSDGILAASIPLLEVQAGWRSLGLGSELMRRVLTELGDLYMVDLSCDDDVVPFYERLGLKRANAMFLRRYDNQAGIPAE | not failed |
| MKQKDFFLYAVMSVFLGMQGCASSSDIKQNVGTSEIAHTKQTLQIAGLKHCNNEGNDSIHLNPDEPLTIIVHGCFSSAGRFETLADVYGLYDQQAICFEYDDRKSLEDTSGELVAALNQLSTQNPNQDLHVIGHSQGGLVARRALTSEREDQQTVTAKKVQLTTVSSPFNGIEISSHCGITPLRILSLGIVDLICYAVTGEKYQQIPPNADFIEQPGDLVASVSQHLVIKTDERNSCRKENDKGECIEDDYVFSVNEQSNNQVDDGVNTDLVTVKAGHVEIVGNGESVPTDLINILKQKEVLVDKSGVDEQKQGYLINQLYFD | failed |
| MDMSLHFLSQGDLSGVWGRVYWRRRAGFKAIKIQSAFKAYLARKALWAGKCNGWDSSALTKEDIKAIWLRKQEGLKELFLQERRSPHMLEDSLSTPRQRVGLMDSLFVNYKKDGDKVSLWTSFVCENSKINNAKKSSLTTYQHNC | not failed |
| MKREIQVSVFLTFITLAYYLLNSLALEFLGLGFISIPLTILLPASILFERERPNPISRVTYIFSMLWLVFLIYLLTGWALVQFIWFFLDLPCLKILAVSLAALSVSYGVFRARKIEVKRVEIPFPVEESLRFVQLSDIHLGTVRSAGFLKEVSEAVRRVEAAAVLITGDLLDGSRPVDSSIISSLETGAPIFFVSGNHDTYSGDFRSTVSDAGIMCIDQSVIEFEGIQIIGVGYSMERHSLPAILDLLEFDEDRPVLLLHHLPVDWEDARERGVDLQLSGHTHGGQFYPFNIIVGLMFPFLRGLYSDSGGFLYVSEGTGTWGPPVRLGSSCEITVIDLVPFKEI | failed |
| MHPTIARMQEVVAKGDESLIHALLAEDVRFMPPTYYKTWTGRDPVAAVLGHVGQVFSEFRYRRIMGEGKDWALEFQCKVGELDAVGVDLITLNEGGLIQDFEVVMRPYKTVGALRDAMNARVMTDARFLKYREALS | not failed |
| PLQFHSVHGDNIRISRDGTLARRFESFCRAITFSARPVRINERICVKFAEISNNWNGGIRFGFTSNDPVTLEGTLPKYACPDLTNRPGFWAKALHEQYCEKDNILYYYVNGAGDVIYGINNEEKGVILTGIDTRSLLWTVIDIYGNCTGIEFLDSRIYMYQ | not failed |
| MMRFSNKFKKVPYLLQALLNVCLSFLALALSALLISETWYIVLFVYKSLFNKVDSYYEMLGELLIFFMYFEFIALIIKYFKSDFHFPLRYFIYIGITAVIRLIIIDHDQAISTFWWAMAILAMICGFFIANRRNSVVEH | failed |
